Assays:
[1] = target: Mto2-134A136A (full-length, recombinant) (S. pombe) (UniProt Q9USP7); assay: SEC-MALS
[2] = target: Mto2-134AAA (full-length, recombinant) (S. pombe) (UniProt Q9USP7); assay: SEC-MALS

stoichiometry N [1]	stoichiometry N [2]	Substance
2	–	Mto2-134A136A (full-length, recombinant) (from UniProt Q9USP7 1-397) (natural protein)
–	2	Mto2-134AAA (full-length, recombinant) (from UniProt Q9USP7 1-397) (natural protein)
